Assay results reported in patent publication US20090180995A1, “NOVEL ANTICOAGULANT POLYPEPTIDES AND COMPLEX” (National University of Singapore, priority 2005, published 2009).

Biological target: T1, FVIIa (Homo sapiens, UniProt P08709)
T1 construct: from tissue; host or cells: human plasma
T1 sequence (P08709 61-212 limits assumed): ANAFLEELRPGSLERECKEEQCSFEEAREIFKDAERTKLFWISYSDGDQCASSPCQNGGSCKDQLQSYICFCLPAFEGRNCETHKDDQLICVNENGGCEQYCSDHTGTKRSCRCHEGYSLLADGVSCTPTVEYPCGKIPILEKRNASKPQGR
T1 sequence (P08709 213-466 limits assumed): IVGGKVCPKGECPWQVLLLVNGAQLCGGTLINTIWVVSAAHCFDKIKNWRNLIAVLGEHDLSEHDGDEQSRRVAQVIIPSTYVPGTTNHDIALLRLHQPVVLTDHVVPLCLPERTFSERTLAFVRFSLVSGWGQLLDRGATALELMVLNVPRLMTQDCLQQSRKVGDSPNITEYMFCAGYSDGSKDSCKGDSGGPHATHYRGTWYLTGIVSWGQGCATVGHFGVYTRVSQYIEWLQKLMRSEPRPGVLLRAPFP
Assay: ITC, binding of hemextin AB complex to FVIIa
Conditions: 37° C.
Description: Isothermal titration calorimetry (ITC) studies—The interaction of anticoagulant hemextin AB complex with FVIIa was monitored with a VP-ITC titration calorimetric system (Microcal Inc., Northampton, Mass.). The instrument was calibrated using the built-in electrical calibration check. FVIIa (10 μM) in 50 mM Tris-HCl buffer and 10 mM CaCl2 (pH 7.4) in the calorimetric cell was titrated with reconstituted anticoagulant complex (0.2 mM) dissolved in the same buffer in a 250 μl injection syringe, with continual stirring at 300 rpm at 37° C. All the protein solutions were filtered and degassed prior to titration. […] The total heat content Q of the solution (determined relative to zero for the unliganded species) contained in the active cell volume, Vo, was calculated according to the following Equation 2, where K is the binding affinity constant, n is the number of sites, ΔH is the enthalpy of ligand binding, Mt and Xt is the bulk concentration of macromolecule and ligand, respectively, for the binding X+M ? […]
The change in heat (ΔQ) measured between the completions of two consecutive injections is corrected for dilution of the protein and ligand in the cell according to standard Marquardt methods. The free energy change (AG) during the interaction was calculated by using the relationship: ΔG=ΔH−TΔS=[…], where T is the absolute temperature and R is the universal gas constant.

B1: hemextin AB complex: synergistic 1:1 tetrameric complex of hemextin A and hemextin B, reconstituted from equimolar proteins (protein)
chain 1: LKCKNKLVPFLSKTCPEGKNLCYKMTMLKMPKIPIKRGCTDACPKSSLLVKVVCCNKDKCN
chain 2: LKCKNKVVPFLKCKNKVVPFLCYKMTLKKVPKIPIKRGCTDACPKSSLLVNVMCCKTDKCN
  ΔG of binding to FVIIa: -7.543 kcal/M
50 mM Tris-HCl, 10 mM CaCl2 (pH 7.4)
  K for the binding to FVIIa: 411000 M⁻¹
